Among the data in patent US20220249633A1 are peptide exchange yield values, retold here.

The assay addresses HLA-A*24 (human). Nature of the assay: UV-exchange ELISA, exchange yield grade. Background: ELISA stands for enzyme-linked immunosorbent assay.
Turning to VYVPFGGKSMITF [… (SEQ ID NO: 153)], the peptide exchange yield is > 75%.

Molecule DYIPASGFALF [… (SEQ ID NO: 157)] returned a peptide exchange yield of 50 to 75%.

With IYSFHTLSF [… (SEQ ID NO: 113)], the peptide exchange yield lay in the range of 50 to 75%. On to RYGFYYVEF [… (SEQ ID NO: 167)], for which the peptide exchange yield is 50 to 75%.

Turning to KYLEDMKTYF [… (SEQ ID NO: 133)], the peptide exchange yield was 50 to 75%.

Turning to KFFDDLGDELLF [… (SEQ ID NO: 152)], the peptide exchange yield was in the range of 20 to 49%. Molecule NYEDHFPLL [… (SEQ ID NO: 171)] showed a peptide exchange yield of 50 to 75%. For the molecule VYTPVLEHL [… (SEQ ID NO: 123)], the peptide exchange yield fell in the range of 20 to 49%.

Turning to RYLTISNLQF [… (SEQ ID NO: 163)], the peptide exchange yield is > 75%. In the case of RYPALFPVL [… (SEQ ID NO: 132)], the peptide exchange yield was > 75%. On to VFASLPGFLF [… (SEQ ID NO: 144)], for which the peptide exchange yield is > 75%.

Regarding FYTLPFHLI [… (SEQ ID NO: 166)], the peptide exchange yield was > 75%. The value for VFSRDFGLLVF [… (SEQ ID NO: 125)] was 50 to 75%; that for RYGLPAAWSTF [… (SEQ ID NO: 121)] was 50 to 75%; that for IYLSDLTYI [… (SEQ ID NO: 117)] was 50 to 75%. With IYPEWPVVFF [… (SEQ ID NO: 136)], the peptide exchange yield lay within 50 to 75%. RYLEAALRL [… (SEQ ID NO: 168)] showed a peptide exchange yield of 50 to 75%.

Take LFITGGQFF [… (SEQ ID NO: 109)]: the peptide exchange yield was > 75%. Molecule KYTSYILAF [… (SEQ ID NO: 162)] gave a peptide exchange yield of 20 to 49%.

In the case of RYLINSYDF [… (SEQ ID NO: 140)], the peptide exchange yield was > 75%. With LYLAFPLAF [… (SEQ ID NO: 147)] the figure was 50 to 75%. With TYKDYVDLF [… (SEQ ID NO: 124)] the figure was < 20%. With IYEETRGVL [… (SEQ ID NO: 159)] the figure was 50 to 75%; with NYITGKGDVF [… (SEQ ID NO: 169)], 50 to 75%; with KYLNSVQYI [… (SEQ ID NO: 118)], 50 to 75%. In turn, IYNFVESKL [… (SEQ ID NO: 112)] registered a peptide exchange yield of 50 to 75%. The molecule VYRVYVTTF [… (SEQ ID NO: 119)] registered a peptide exchange yield of 50 to 75%. The value for VYIESRIGTSTSF [… (SEQ ID NO: 100)] was 50 to 75%. With IYNETVRDLL [… (SEQ ID NO: 106)] the figure was 50 to 75%. With IYNETITDLL [… (SEQ ID NO: 105)] the figure was 50 to 75%.

As for AYVIAVHLF [… (SEQ ID NO: 116)], the peptide exchange yield was > 75%. With VYNAVSTSF [… (SEQ ID NO: 138)] the figure was 20 to 49%. Consider IYKWITDNF [… (SEQ ID NO: 155)], for which the peptide exchange yield was > 75%. The value for YYMELTKLLL [… (SEQ ID NO: 156)] was > 75%; that for VYVQILQKL [… (SEQ ID NO: 111)] was 50 to 75%. Consider EYFTPLLSGQF [… (SEQ ID NO: 165)], for which the peptide exchange yield fell in the range of 50 to 75%. With KYIFQLNEI [… (SEQ ID NO: 143)] the figure was 50 to 75%. With HYVPATKVF [… (SEQ ID NO: 164)] the figure was 50 to 75%. Turning to VFPRLHNVLF [… (SEQ ID NO: 98)], the peptide exchange yield is 50 to 75%. The value for KYIDYLMTW [… (SEQ ID NO: 129)] was > 75%; that for AYIPTPIYF [… (SEQ ID NO: 134)] was 50 to 75%; that for EYLHNCSYF [… (SEQ ID NO: 137)] was > 75%. EYLDRIGQLFF [… (SEQ ID NO: 131)]: the peptide exchange yield lay within 50 to 75%. With QYLDGTWSL [… (SEQ ID NO: 114)] the figure was > 75%; with RYGDGGSSF [… (SEQ ID NO: 160)], 50 to 75%. With SYPKIIEEF [… (SEQ ID NO: 110)] the figure was 50 to 75%; with KYFPYLVVI [… (SEQ ID NO: 107)], 50 to 75%; with VYEAMVPLF [… (SEQ ID NO: 135)], > 75%. In turn, RYLNKSFVL [… (SEQ ID NO: 115)] displayed a peptide exchange yield of 50 to 75%. With VYPFENFEF [… (SEQ ID NO: 102)] the figure was 50 to 75%. For the molecule QYPFHVPLL [… (SEQ ID NO: 170)], the peptide exchange yield is > 75%. Molecule NYIPVKNGKQF [… (SEQ ID NO: 103)] had a peptide exchange yield of 50 to 75%. The value for EYQARIPEF [… (SEQ ID NO: 122)] was 50 to 75%; that for GYIEHFSLW [… (SEQ ID NO: 120)] was > 75%.

In turn, IFGIFPNQF [… (SEQ ID NO: 139)] had a peptide exchange yield of 50 to 75%. NYYERIHAL [… (SEQ ID NO: 146)]: the peptide exchange yield was 50 to 75%. With QYFTGNPLF [… (SEQ ID NO: 127)] the figure was 50 to 75%; with PYLVVIHTL [… (SEQ ID NO: 108)], 50 to 75%; with TYTFLKETF [… (SEQ ID NO: 97)], > 75%. The value for SYLTWHQQI [… (SEQ ID NO: 104)] was > 75%; that for VYALKVRTI [… (SEQ ID NO: 145)] was 50 to 75%; that for QYILAVPVL [… (SEQ ID NO: 99)] was > 75%. SYNGHLTIWF [… (SEQ ID NO: 141)] returned a peptide exchange yield of 50 to 75%. For the molecule SYGTVSQIF [… (SEQ ID NO: 148)], the peptide exchange yield is > 75%.

For the molecule YYTQYSQTI [… (SEQ ID NO: 96)], the peptide exchange yield was > 75%. The value for VYGVPTPHF [… (SEQ ID NO: 154)] was > 75%.

For KYPDIVQQF [… (SEQ ID NO: 161)], the peptide exchange yield lay within 50 to 75%. In the case of VYPFDWQYI [… (SEQ ID NO: 128)], the peptide exchange yield was > 75%.

With SYGTVSQI [SYGTVSQI (SEQ ID NO: 149)], the peptide exchange yield was > 75%.
